What follows are sequences tested on Escherichia coli TOP10 (assay: shrunken log2 fold change of peptide-encoding DNA abundance (4.5 h post-induction vs induction); higher = less antimicrobial activity (less host growth inhibition)). Conditions: time post-induction: 4.5 h; library: site-saturation at positions 5, 18, 19, 20.
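Note: peptides expressed intracellularly from a pBAD plasmid library in pooled LB shake-flask culture, induced with 0.3% L-arabinose, DNA abundance read by NGS, three biological replicates, DESeq2 with apeglm shrinkage.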

Sequence | shrunken log2 fold change
RRIRIRPPRLPRPRPRPKSCPRP | -0.0687
RRIRLRPPRLPRPRPRPEDCPRP | 0.0408
RRIRRRPPRLPRPRPRPPFDPRP | 0.735
RRIRARPPRLPRPRPRPPMEPRP | 0.587
RRIRERPPRLPRPRPRPNGSPRP | -0.263
RRIRMRPPRLPRPRPRPNWTPRP | 0.132
RRIRVRPPRLPRPRPRPTYFPRP | -0.0832
RRIRFRPPRLPRPRPRPCIPPRP | 0.0633
RRIRYRPPRLPRPRPRPKWPPRP | -0.0557
RRIRKRPPRLPRPRPRPCYLPRP | -0.427
RRIRPRPPRLPRPRPRPISHPRP | -0.118
RRIRCRPPRLPRPRPRPMPIPRP | -0.197
RRIRPRPPRLPRPRPRPVRFPRP | 0.28
RRIRGRPPRLPRPRPRPLEDPRP | 0.205
RRIRQRPPRLPRPRPRPLTPPRP | 0.31
RRIRDRPPRLPRPRPRPDHYPRP | -0.183
RRIRERPPRLPRPRPRPDMPPRP | -0.447
RRIRYRPPRLPRPRPRPIGVPRP | -0.0936
RRIRYRPPRLPRPRPRPPFNPRP | -0.309
RRIRLRPPRLPRPRPRPSGFPRP | -0.259
RRIRYRPPRLPRPRPRPMLSPRP | 0.0215
RRIRARPPRLPRPRPRPATMPRP | 0.413
RRIRTRPPRLPRPRPRPKFFPRP | -0.00469
RRIRSRPPRLPRPRPRPHGQPRP | 0.24
RRIRWRPPRLPRPRPRPPSVPRP | 0.171

Sequence | shrunken log2 fold change
RRIRRRPPRLPRPRPRPGYQPRP | 0.0538
RRIRVRPPRLPRPRPRPVVRPRP | 0.129
RRIRARPPRLPRPRPRPCRLPRP | -0.0461
RRIRQRPPRLPRPRPRPIYWPRP | 0.0909
RRIRRRPPRLPRPRPRPHCMPRP | -0.329
RRIRSRPPRLPRPRPRPDVGPRP | 0.102
RRIRGRPPRLPRPRPRPQSTPRP | 0.649
RRIRDRPPRLPRPRPRPPCLPRP | -0.264
RRIRGRPPRLPRPRPRPLFRPRP | 0.444
RRIRFRPPRLPRPRPRPMFYPRP | -1.51
RRIRPRPPRLPRPRPRPPWCPRP | 0.0891
RRIRGRPPRLPRPRPRPNMEPRP | 0.22
RRIRNRPPRLPRPRPRPFAPPRP | -0.0816
RRIRERPPRLPRPRPRPFMKPRP | -0.0971
RRIRVRPPRLPRPRPRPTPAPRP | 0.448
RRIRLRPPRLPRPRPRPTCVPRP | 0.0314
RRIRNRPPRLPRPRPRPWVNPRP | -0.00663
RRIRWRPPRLPRPRPRPPGRPRP | 0.877
RRIRARPPRLPRPRPRPDMHPRP | -0.00915
RRIRMRPPRLPRPRPRPASDPRP | 0.869
RRIRNRPPRLPRPRPRPYYLPRP | -0.673
RRIRQRPPRLPRPRPRPPHNPRP | 1.15
RRIRSRPPRLPRPRPRPPFLPRP | -0.0588
RRIRKRPPRLPRPRPRPWHCPRP | 0.0258
RRIRARPPRLPRPRPRPICDPRP | 0.497

Sequence | shrunken log2 fold change
RRIRSRPPRLPRPRPRPAFAPRP | 0.414
RRIRMRPPRLPRPRPRPDVEPRP | 3.52
RRIRRRPPRLPRPRPRPKGEPRP | 0.0115
RRIRWRPPRLPRPRPRPNKCPRP | -0.109
RRIRVRPPRLPRPRPRPMRHPRP | -0.00914
RRIRSRPPRLPRPRPRPWTAPRP | -0.22
RRIRMRPPRLPRPRPRPHNTPRP | -0.168
RRIRTRPPRLPRPRPRPCAHPRP | -0.209
RRIRNRPPRLPRPRPRPRQPPRP | 0.428
RRIRDRPPRLPRPRPRPVDIPRP | -0.0995
RRIRQRPPRLPRPRPRPQGAPRP | -0.0289
RRIRARPPRLPRPRPRPWCFPRP | 0.0976
RRIRVRPPRLPRPRPRPMKMPRP | -0.0573
RRIRSRPPRLPRPRPRPTQLPRP | 0.249
RRIRNRPPRLPRPRPRPLTVPRP | 0.0619
RRIRQRPPRLPRPRPRPCRMPRP | -0.126
RRIRNRPPRLPRPRPRPWMLPRP | -0.0937
RRIRSRPPRLPRPRPRPTQYPRP | -0.0116
RRIRTRPPRLPRPRPRPHECPRP | -0.287
RRIRWRPPRLPRPRPRPTQMPRP | 0.59
RRIRQRPPRLPRPRPRPDKNPRP | -0.635
RRIRNRPPRLPRPRPRPHKIPRP | -0.657
RRIRHRPPRLPRPRPRPDKVPRP | 0.1
RRIRGRPPRLPRPRPRPMWGPRP | -0.0435
RRIRMRPPRLPRPRPRPSWIPRP | 0.0389

Reference: the supplement of paper PMC9112550, “Optimization of the antimicrobial peptide Bac7 by deep mutational scanning” (BMC Biology, 2022)
